B1: KRT34 (parent)
chain: PTVDLNQVLNETRSQYEALVETNR
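Note: lentivirally expressed fusions sorted by FACS into six bins by GFP to DsRed ratio, PSI derived from sequencing read proportions per bin multiplied by bin number.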

The variants in this data set derive from B1. The experiment in a line: protein stability index of a GFP-peptide fusion (GPS, HEK-293T) (PSI 1-6); higher = more stable. Conditions: c terminus: a fixed tail appended.
Regarding PTEDLNQVLNETRSQYEALVETNR [V3E], the protein stability index worked out at 4.03.
For PTHDLNQVLNETRSQYEALVETNR [V3H] the value was 3.8; for PTDDLNQVLNETRSQYEALVETNR [V3D], 4.76; for PTYDLNQVLNETRSQYEALVETNR [V3Y], 2.83.
For PTADLNQVLNETRSQYEALVETNR [V3A] the value was 3.63; for PTNDLNQVLNETRSQYEALVETNR [V3N], 4.46; for PTCDLNQVLNETRSQYEALVETNR [V3C], 4.07.
The same measure for PTLDLNQVLNETRSQYEALVETNR [V3L]: 2.65.
For PTGDLNQVLNETRSQYEALVETNR [V3G], the protein stability index is 4.15.
For PTRDLNQVLNETRSQYEALVETNR [V3R], the protein stability index was 2.92.
On to PTKDLNQVLNETRSQYEALVETNR [V3K], for which the protein stability index amounted to 2.76.
For PTMDLNQVLNETRSQYEALVETNR [V3M] the value was 2.45; for PTSDLNQVLNETRSQYEALVETNR [V3S], 4.28; for PTIDLNQVLNETRSQYEALVETNR [V3I], 3.7.
For PTPDLNQVLNETRSQYEALVETNR [V3P] the value was 4.62; for PTQDLNQVLNETRSQYEALVETNR [V3Q], 3.05; for PTFDLNQVLNETRSQYEALVETNR [V3F], 3.65.
Take PTTDLNQVLNETRSQYEALVETNR [V3T]: the protein stability index was determined as 3.89.
The same measure for PTVDANQVLNETRSQYEALVETNR [L5A]: 2.51; for PTVDVNQVLNETRSQYEALVETNR [L5V]: 2.86.
For the variant PTVDQNQVLNETRSQYEALVETNR [L5Q], the protein stability index was found to be 4.38.
For the variant PTVDWNQVLNETRSQYEALVETNR [L5W], the protein stability index is 3.3.
For PTVDINQVLNETRSQYEALVETNR [L5I] the value was 2.24.
The same measure for PTVDCNQVLNETRSQYEALVETNR [L5C]: 3.68; for PTVDDNQVLNETRSQYEALVETNR [L5D]: 4.67.
The same measure for PTVDHNQVLNETRSQYEALVETNR [L5H]: 3.8; for PTVDPNQVLNETRSQYEALVETNR [L5P]: 3.77.
In the case of PTVDNNQVLNETRSQYEALVETNR [L5N], the protein stability index stood at 4.57.
The same measure for PTVDENQVLNETRSQYEALVETNR [L5E]: 4.61; for PTVDMNQVLNETRSQYEALVETNR [L5M]: 4.24; for PTVDRNQVLNETRSQYEALVETNR [L5R]: 4.53.
Regarding PTVDFNQVLNETRSQYEALVETNR [L5F], the protein stability index worked out at 3.92.
As for PTVDKNQVLNETRSQYEALVETNR [L5K], the protein stability index was 4.8.
The same measure for PTVDSNQVLNETRSQYEALVETNR [L5S]: 4.13.
For PTVDGNQVLNETRSQYEALVETNR [L5G] the value was 4.68; for PTVDTNQVLNETRSQYEALVETNR [L5T], 4.8.
The same measure for PTVDYNQVLNETRSQYEALVETNR [L5Y]: 2.77; for PTVDLNQVLTETRSQYEALVETNR [N10T]: 2.75.
For PTVDLNQVLEETRSQYEALVETNR [N10E], the protein stability index worked out at 2.41.
For PTVDLNQVLFETRSQYEALVETNR [N10F] the value was 2.63; for PTVDLNQVLAETRSQYEALVETNR [N10A], 2.44.
The same measure for PTVDLNQVLQETRSQYEALVETNR [N10Q]: 2.5; for PTVDLNQVLHETRSQYEALVETNR [N10H]: 3.19.
The same measure for PTVDLNQVLSETRSQYEALVETNR [N10S]: 3.46; for PTVDLNQVLDETRSQYEALVETNR [N10D]: 3.74.
PTVDLNQVLKETRSQYEALVETNR [N10K]: the protein stability index is 2.7.
The same measure for PTVDLNQVLIETRSQYEALVETNR [N10I]: 2.47.
The same measure for PTVDLNQVLLETRSQYEALVETNR [N10L]: 1.58; for PTVDLNQVLGETRSQYEALVETNR [N10G]: 4.35.
The same measure for PTVDLNQVLVETRSQYEALVETNR [N10V]: 3.21; for PTVDLNQVLCETRSQYEALVETNR [N10C]: 2.82.
In the case of PTVDLNQVLWETRSQYEALVETNR [N10W], the protein stability index came out at 3.02.
The same measure for PTVDLNQVLMETRSQYEALVETNR [N10M]: 2.49; for PTVDLNQVLYETRSQYEALVETNR [N10Y]: 2.91; for PTVDLNQVLPETRSQYEALVETNR [N10P]: 4.55.
The same measure for PTVDLNQVLRETRSQYEALVETNR [N10R]: 3.21; for PTVDLNTVLNETRSQYEALVETNR [Q7T]: 2.75.
The same measure for PTVDLNAVLNETRSQYEALVETNR [Q7A]: 3.13.
On to PTVDLNNVLNETRSQYEALVETNR [Q7N], for which the protein stability index was 3.92.
The same measure for PTVDLNLVLNETRSQYEALVETNR [Q7L]: 4.08; for PTVDLNYVLNETRSQYEALVETNR [Q7Y]: 3.65.
The same measure for PTVDLNRVLNETRSQYEALVETNR [Q7R]: 3.65; for PTVDLNMVLNETRSQYEALVETNR [Q7M]: 3.62; for PTVDLNKVLNETRSQYEALVETNR [Q7K]: 3.98.
The same measure for PTVDLNDVLNETRSQYEALVETNR [Q7D]: 3.66; for PTVDLNSVLNETRSQYEALVETNR [Q7S]: 3.62.
As to PTVDLNIVLNETRSQYEALVETNR [Q7I], the protein stability index was determined as 2.99.
For PTVDLNEVLNETRSQYEALVETNR [Q7E] the value was 3.25; for PTVDLNVVLNETRSQYEALVETNR [Q7V], 2.37; for PTVDLNHVLNETRSQYEALVETNR [Q7H], 4.
For PTVDLNCVLNETRSQYEALVETNR [Q7C], the protein stability index is 3.95.
The same measure for PTVDLNWVLNETRSQYEALVETNR [Q7W]: 3.08; for PTVDLNFVLNETRSQYEALVETNR [Q7F]: 3.61; for PTVDLNPVLNETRSQYEALVETNR [Q7P]: 4.79.
The same measure for PTVDLNGVLNETRSQYEALVETNR [Q7G]: 4.25; for PTVDLNQVLNFTRSQYEALVETNR [E11F]: 3.22.
For PTVDLNQVLNKTRSQYEALVETNR [E11K], the protein stability index was 3.79.
The same measure for PTVDLNQVLNATRSQYEALVETNR [E11A]: 4.06; for PTVDLNQVLNGTRSQYEALVETNR [E11G]: 4.05; for PTVDLNQVLNWTRSQYEALVETNR [E11W]: 3.15.
PTVDLNQVLNMTRSQYEALVETNR [E11M]: the protein stability index came out at 3.95.
For PTVDLNQVLNSTRSQYEALVETNR [E11S] the value was 3.85; for PTVDLNQVLNLTRSQYEALVETNR [E11L], 3.36.
As to PTVDLNQVLNITRSQYEALVETNR [E11I], the protein stability index came to 3.42.
For PTVDLNQVLNQTRSQYEALVETNR [E11Q] the value was 3.93; for PTVDLNQVLNPTRSQYEALVETNR [E11P], 4.1.
Regarding PTVDLNQVLNNTRSQYEALVETNR [E11N], the protein stability index was 3.69.
The same measure for PTVDLNQVLNTTRSQYEALVETNR [E11T]: 3.78.
On to PTVDLNQVLNRTRSQYEALVETNR [E11R], for which the protein stability index was determined as 4.03.
On to PTVDLNQVLNHTRSQYEALVETNR [E11H], for which the protein stability index was 4.18.
The same measure for PTVDLNQVLNYTRSQYEALVETNR [E11Y]: 3.72; for PTVDLNQVLNVTRSQYEALVETNR [E11V]: 4.44.
The same measure for PTVDLNQVLNDTRSQYEALVETNR [E11D]: 3.81; for PTVDLNQVLNCTRSQYEALVETNR [E11C]: 3.91.

The values above are taken from the supplement of paper PMC10567573.
